Test results published in the supplement of paper PMC10567573.

B1: FUNDC2 (parent)
chain: YIKVDWQRVEKDMKKAKEQLKIRK

Variants of: B1
Assay: protein stability index of a GFP-peptide fusion (GPS, HEK-293T) (PSI 1-6); higher = more stable
Conditions: c terminus: a fixed tail appended
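Further: lentivirally expressed fusions sorted by FACS into six bins by GFP to DsRed ratio, PSI derived from sequencing read proportions per bin multiplied by bin number.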

Variant	protein stability index
YIKVDWQVVEKDMKKAKEQLKIRK	1.74
YIKVDWQYVEKDMKKAKEQLKIRK	1.62
YIKVDWQRAEKDMKKAKEQLKIRK	1.5
YIKVDWQRCEKDMKKAKEQLKIRK	1.94
YIKVDWQRDEKDMKKAKEQLKIRK	2.62
YIKVDWQREEKDMKKAKEQLKIRK	2.56
YIKVDWQRFEKDMKKAKEQLKIRK	1.54
YIKVDWQRGEKDMKKAKEQLKIRK	1.95
YIKVDWQRHEKDMKKAKEQLKIRK	1.61
YIKVDWQRIEKDMKKAKEQLKIRK	2.28
YIKVDWQRKEKDMKKAKEQLKIRK	2.45
YIKVDWQRLEKDMKKAKEQLKIRK	2.04
YIKVDWQRMEKDMKKAKEQLKIRK	1.26
YIKVDWQRNEKDMKKAKEQLKIRK	2.37
YIKVDWQRPEKDMKKAKEQLKIRK	1.81
YIKVDWQRQEKDMKKAKEQLKIRK	2.16
YIKVDWQRREKDMKKAKEQLKIRK	1.73
YIKVDWQRSEKDMKKAKEQLKIRK	1.91
YIKVDWQRTEKDMKKAKEQLKIRK	1.66
YIKVDWQRWEKDMKKAKEQLKIRK	1.99
YIKVDWQRYEKDMKKAKEQLKIRK	1.67
YIKVDWQRVAKDMKKAKEQLKIRK	1.92
YIKVDWQRVDKDMKKAKEQLKIRK	1.85
YIKVDWQRVFKDMKKAKEQLKIRK	1.78

Variant	protein stability index
YIKVDWQRVGKDMKKAKEQLKIRK	1.09
YIKVDWQRVHKDMKKAKEQLKIRK	2.58
YIKVDWQRVKKDMKKAKEQLKIRK	1.73
YIKVDWQRVLKDMKKAKEQLKIRK	1.65
YIKVDWQRVMKDMKKAKEQLKIRK	1.73
YIKVDWQRVNKDMKKAKEQLKIRK	1.62
YIKVDWQRVPKDMKKAKEQLKIRK	1.77
YIKVDWQRVQKDMKKAKEQLKIRK	1.36
YIKVDWQRVRKDMKKAKEQLKIRK	1.27
YIKVDWQRVSKDMKKAKEQLKIRK	2.33
YIKVDWQRVTKDMKKAKEQLKIRK	2.36
YIKVDWQRVVKDMKKAKEQLKIRK	1.52
YIKVDWQRVWKDMKKAKEQLKIRK	1.56
YIKVDWQRVYKDMKKAKEQLKIRK	1.79
YIKVDWQRVEADMKKAKEQLKIRK	2.37
YIKVDWQRVECDMKKAKEQLKIRK	1.53
YIKVDWQRVEDDMKKAKEQLKIRK	2.06
YIKVDWQRVEEDMKKAKEQLKIRK	2.01
YIKVDWQRVEFDMKKAKEQLKIRK	1.64
YIKVDWQRVEGDMKKAKEQLKIRK	1.2
YIKVDWQRVEHDMKKAKEQLKIRK	1.95
YIKVDWQRVEIDMKKAKEQLKIRK	1.78
YIKVDWQRVELDMKKAKEQLKIRK	1.46
YIKVDWQRVEMDMKKAKEQLKIRK	1.57

Variant	protein stability index
YIKVDWQRVENDMKKAKEQLKIRK	2.59
YIKVDWQRVEPDMKKAKEQLKIRK	2.5
YIKVDWQRVEQDMKKAKEQLKIRK	2.12
YIKVDWQRVERDMKKAKEQLKIRK	2.09
YIKVDWQRVESDMKKAKEQLKIRK	1.97
YIKVDWQRVETDMKKAKEQLKIRK	2.56
YIKVDWQRVEVDMKKAKEQLKIRK	2.16
YIKVDWQRVEYDMKKAKEQLKIRK	1.55
YIKVDWQRVEKEMKKAKEQLKIRK	1.82
YIKVDWQRVEKGMKKAKEQLKIRK	2.68
YIKVDWQRVEKHMKKAKEQLKIRK	1.03
YIKVDWQRVEKLMKKAKEQLKIRK	2.8
YIKVDWQRVEKMMKKAKEQLKIRK	2.97
YIKVDWQRVEKNMKKAKEQLKIRK	1.47
YIKVDWQRVEKPMKKAKEQLKIRK	1.45
YIKVDWQRVEKQMKKAKEQLKIRK	2.63
YIKVDWQRVEKRMKKAKEQLKIRK	1.91
YIKVDWQRVEKTMKKAKEQLKIRK	1.74
YIKVDWQRVEKVMKKAKEQLKIRK	3.62
YIKVDWQRVEKYMKKAKEQLKIRK	3.43
YIKVDWQRVEKDAKKAKEQLKIRK	1.24
YIKVDWQRVEKDCKKAKEQLKIRK	1.73
YIKVDWQRVEKDDKKAKEQLKIRK	1.83
YIKVDWQRVEKDEKKAKEQLKIRK	1.87

Variant	protein stability index
YIKVDWQRVEKDFKKAKEQLKIRK	1.79
YIKVDWQRVEKDGKKAKEQLKIRK	2.32
YIKVDWQRVEKDHKKAKEQLKIRK	1.82
YIKVDWQRVEKDIKKAKEQLKIRK	1.89
YIKVDWQRVEKDKKKAKEQLKIRK	1.92
YIKVDWQRVEKDLKKAKEQLKIRK	1.63
YIKVDWQRVEKDNKKAKEQLKIRK	2.3
YIKVDWQRVEKDPKKAKEQLKIRK	1.17
YIKVDWQRVEKDQKKAKEQLKIRK	1.82
YIKVDWQRVEKDRKKAKEQLKIRK	2.29
YIKVDWQRVEKDSKKAKEQLKIRK	2.21
YIKVDWQRVEKDTKKAKEQLKIRK	1.4
YIKVDWQRVEKDVKKAKEQLKIRK	1.95
YIKVDWQRVEKDWKKAKEQLKIRK	2.29
YIKVDWQRVEKDYKKAKEQLKIRK	2.14
YIKVDWQRVEKDMAKAKEQLKIRK	1.6
YIKVDWQRVEKDMCKAKEQLKIRK	1.83
YIKVDWQRVEKDMDKAKEQLKIRK	1.65
YIKVDWQRVEKDMEKAKEQLKIRK	1.42
YIKVDWQRVEKDMFKAKEQLKIRK	1.51
YIKVDWQRVEKDMHKAKEQLKIRK	1.14
YIKVDWQRVEKDMIKAKEQLKIRK	1.67
